This note sets out measurements from the supplement of paper PMC10724198.

The subject of the series is Saccharomyces cerevisiae. Briefly: protein stability index of tFT-peptide fusion (C-terminal peptide) (PSI (0-1 scale)); higher = more stable (slower turnover). The note with it: temperature: 30 C. The protocol:
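MPS profiling in S. cerevisiae of the yeast C-terminome library: the last 12 aa of each annotated ORF are fused to the C-terminus of a sfGFP-mCherry timer, after a GGGS linker. Cells are FACS-sorted into 8 mCherry/sfGFP bins and deep-sequenced. PSI runs from 0 (unstable) to 1 (stable); wild type and das1Δ backgrounds, two technical replicates each.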

Where [1] appears, read: genetic background: das1 deletion.

± gives the standard deviation of the averaged measurements.

KDVIEEALSRFG [UTP7 C-terminal 12 aa]: the protein stability index under setting [1] stood at 0.704 ± 0.0086 and the protein stability index (genetic background: wild type) was found to be 0.677 ± 0.027.

With KEKSESLQEEIN [YET3 C-terminal 12 aa], the protein stability index amounted to 0.691 ± 0.0081 under setting [1] and 0.71 ± 0.032 (genetic background: wild type).

Consider KFDKALYKKTTG [YMR206W C-terminal 12 aa], for which the protein stability index was 0.712 ± 0.038 under setting [1] and 0.669 ± 0.03 (genetic background: wild type).

Consider KFKIQNILNSTF [SIP4 C-terminal 12 aa], for which the protein stability index reads like this: under setting [1], 0.714 ± 0.011; (genetic background: wild type) 0.711 ± 0.0095.

For KGLFWDPACVIA [MFA2 C-terminal 12 aa], the protein stability index stood at 0.731 ± 0.022 under setting [1] and 0.728 ± 0.029 (genetic background: wild type).

For the sequence KGLQTVVVEEDA [RPL31A C-terminal 12 aa], the protein stability index amounted to 0.6888 ± 0.0012 under setting [1] and 0.683 ± 0.0082 (genetic background: wild type).

KHASELSSNSKF [CTA1 C-terminal 12 aa]: the protein stability index was determined as 0.702 ± 0.029 under setting [1] and 0.681 ± 0.048 (genetic background: wild type).

As to KHDVLSTLPHNN [SKO1 C-terminal 12 aa], the protein stability index amounted to 0.7043 ± 0.0056 under setting [1] and 0.687 ± 0.011 (genetic background: wild type).

For “KHKNILLFNNNT [YAL068W-A C-terminal 12 aa]”, the protein stability index stood at 0.699 ± 0.011 under setting [1] and 0.686 ± 0.017 (genetic background: wild type).

Sequence KHVMMDMQQPSQ [MRPS17 C-terminal 12 aa] gave a protein stability index under setting [1] of 0.699 ± 0.022 and a protein stability index (genetic background: wild type) of 0.674 ± 0.027.

On to “KILVFDKNLMNR [YLR154W-E C-terminal 12 aa]”, for which the protein stability index came to 0.699 ± 0.0098 under setting [1] and 0.688 ± 0.019 (genetic background: wild type).

KKDFNEDDSLFG [VPS55 C-terminal 12 aa]: the protein stability index runs as follows: under setting [1], 0.722 ± 0.013; (genetic background: wild type) 0.694 ± 0.0072.

For the sequence KKKRNKNKKAGK [ETP1 C-terminal 12 aa], the protein stability index under setting [1] came out at 0.691 ± 0.023 and the protein stability index (genetic background: wild type) is 0.698 ± 0.014.

Regarding KKKSKSSKKVKV [ESF1 C-terminal 12 aa], the protein stability index is 0.707 ± 0.017 under setting [1] and 0.653 ± 0.0087 (genetic background: wild type).

For the sequence KKQLLPSKTVDN [HED1 C-terminal 12 aa], the protein stability index runs as follows: under setting [1], 0.688 ± 0.013; (genetic background: wild type) 0.66 ± 0.04.

Consider KKRDPITGEVFE [ERG5 C-terminal 12 aa], for which the protein stability index reads like this: under setting [1], 0.6849 ± 0.0021; (genetic background: wild type) 0.667 ± 0.016.

For KLDVDDEENEGF [MRD1 C-terminal 12 aa], the protein stability index runs as follows: under setting [1], 0.684 ± 0.029; (genetic background: wild type) 0.653 ± 0.011.

Consider KLENESLPNLSG [TRI1 C-terminal 12 aa], for which the protein stability index runs as follows: under setting [1], 0.691 ± 0.013; (genetic background: wild type) 0.685 ± 0.016.

KNEELSKKHFSK [ROK1 C-terminal 12 aa]: the protein stability index reads like this: under setting [1], 0.718 ± 0.013; (genetic background: wild type) 0.74 ± 0.12.

On to KPPKNKYKVVRR [SEC65 C-terminal 12 aa], for which the protein stability index by setting is: under setting [1], 0.714 ± 0.03; (genetic background: wild type) 0.681 ± 0.0014.

With KQKDKEKNALLL [YBR113W C-terminal 12 aa], the protein stability index under setting [1] came out at 0.689 ± 0.016 and the protein stability index (genetic background: wild type) worked out at 0.6802 ± 0.0029.

As for KRKRRKVRARSK [RPL41A C-terminal 12 aa], the protein stability index under setting [1] turned out to be 0.7678 ± 0.006 and the protein stability index (genetic background: wild type) came to 0.764 ± 0.066.

As for KSASSSPAPKDT [TRM10 C-terminal 12 aa], the protein stability index by setting is: under setting [1], 0.693 ± 0.013; (genetic background: wild type) 0.708 ± 0.011.

As to KTDPNEPANDYR [DLD1 C-terminal 12 aa], the protein stability index was determined as 0.6799 ± 0.00072 under setting [1] and 0.686 ± 0.032 (genetic background: wild type).

Regarding KTFSYKRPSTFY [RPL20A C-terminal 12 aa], the protein stability index is, setting by setting: under setting [1], 0.6745 ± 0.0049; (genetic background: wild type) 0.732 ± 0.039.

Take KTGKEVRSGKQL [ATX1 C-terminal 12 aa]: the protein stability index was 0.689 ± 0.0069 under setting [1] and 0.679 ± 0.022 (genetic background: wild type).

Turning to KTYLNFADNGQI [ELM1 C-terminal 12 aa], the protein stability index under setting [1] came out at 0.675 ± 0.0079 and the protein stability index (genetic background: wild type) came to 0.721 ± 0.062.

For KVESSDCSFEFA [VID24 C-terminal 12 aa], the protein stability index runs as follows: under setting [1], 0.6988 ± 0.0069; (genetic background: wild type) 0.696 ± 0.011.

On to KVNENWKRYGYK [FDC1 C-terminal 12 aa], for which the protein stability index runs as follows: under setting [1], 0.6814 ± 0.0052; (genetic background: wild type) 0.703 ± 0.027.

Take KYGIYLKEKTVA [LYS9 C-terminal 12 aa]: the protein stability index was 0.663 ± 0.013 under setting [1] and 0.4895 ± 0.0018 (genetic background: wild type).

“KYILAWLRKVLL [YFL012W-A C-terminal 12 aa]”: the protein stability index amounted to 0.651 ± 0.031 under setting [1] and 0.456 ± 0.013 (genetic background: wild type).

Turning to LAFYLRRLTAKK [RPS8A C-terminal 12 aa], the protein stability index is, setting by setting: under setting [1], 0.674 ± 0.041; (genetic background: wild type) 0.657 ± 0.0076.

As for LCHSSHIPETLK [MSN1 C-terminal 12 aa], the protein stability index under setting [1] was found to be 0.719 ± 0.033 and the protein stability index (genetic background: wild type) was 0.663 ± 0.042.

In the case of LCKEELKYQAIQ [YMR099C C-terminal 12 aa], the protein stability index was determined as 0.701 ± 0.037 under setting [1] and 0.6649 ± 0.0029 (genetic background: wild type).

In turn, LCQHYIGWCPFW [TOR1 C-terminal 12 aa] returned a protein stability index under setting [1] of 0.7144 ± 0.0024 and a protein stability index (genetic background: wild type) of 0.687 ± 0.011.

LDGSREVGAAKS [UME1 C-terminal 12 aa] gave a protein stability index under setting [1] of 0.682 ± 0.026 and a protein stability index (genetic background: wild type) of 0.7109 ± 0.0018.

On to LDKELTDGCKQQ [PEX19 C-terminal 12 aa], for which the protein stability index by setting is: under setting [1], 0.7031 ± 0.005; (genetic background: wild type) 0.684 ± 0.012.

Sequence LDKVGKKKGGKK [LRP1 C-terminal 12 aa] gave a protein stability index under setting [1] of 0.701 ± 0.049 and a protein stability index (genetic background: wild type) of 0.689 ± 0.025.

In the case of LDLWRDFLNQAN [IDS2 C-terminal 12 aa], the protein stability index by setting is: under setting [1], 0.742 ± 0.015; (genetic background: wild type) 0.629 ± 0.029.

Regarding LDQFEINSDGEE [NCS2 C-terminal 12 aa], the protein stability index worked out at 0.691 ± 0.022 under setting [1] and 0.709 ± 0.012 (genetic background: wild type).

Take LEAATNFLLDSA [EDE1 C-terminal 12 aa]: the protein stability index runs as follows: under setting [1], 0.722 ± 0.027; (genetic background: wild type) 0.6796 ± 0.004.

Take LELEFNSHFELK [HNT3 C-terminal 12 aa]: the protein stability index is 0.69 ± 0.008 under setting [1] and 0.7 ± 0.041 (genetic background: wild type).

For the sequence LEWLSNSLKNST [ARF1 C-terminal 12 aa], the protein stability index runs as follows: under setting [1], 0.735 ± 0.034; (genetic background: wild type) 0.6802 ± 0.0039.

For the sequence LFVEETNDIGYK [TRE2 C-terminal 12 aa], the protein stability index is 0.736 ± 0.026 under setting [1] and 0.691 ± 0.021 (genetic background: wild type).

As for LFYVMTMTKFLF [PHM6 C-terminal 12 aa], the protein stability index runs as follows: under setting [1], 0.5199 ± 0.0025; (genetic background: wild type) 0.364 ± 0.0018.

As for LGDAYVSSDEEF [YEF3 C-terminal 12 aa], the protein stability index was determined as 0.683 ± 0.016 under setting [1] and 0.6769 ± 0.0049 (genetic background: wild type).

With LGEYIEEMNIRS [YBP2 C-terminal 12 aa], the protein stability index by setting is: under setting [1], 0.7143 ± 0.0008; (genetic background: wild type) 0.684 ± 0.018.

On to LGGLLTVLIWFL [KRE1 C-terminal 12 aa], for which the protein stability index reads like this: under setting [1], 0.335 ± 0.004; (genetic background: wild type) 0.332 ± 0.014.

LIDSVKKKVNND [SAC3 C-terminal 12 aa] showed a protein stability index under setting [1] of 0.681 ± 0.029 and a protein stability index (genetic background: wild type) of 0.697 ± 0.069.

On to LIGGNTNDGLSK [CHA4 C-terminal 12 aa], for which the protein stability index turned out to be 0.683 ± 0.023 under setting [1] and 0.722 ± 0.029 (genetic background: wild type).

As to LIMELAVNSQSN [SNF1 C-terminal 12 aa], the protein stability index runs as follows: under setting [1], 0.681 ± 0.034; (genetic background: wild type) 0.691 ± 0.027.

Consider LIQFLEPSKRVA [YPT35 C-terminal 12 aa], for which the protein stability index under setting [1] came to 0.72 ± 0.037 and the protein stability index (genetic background: wild type) turned out to be 0.722 ± 0.042.

For “LITTRTVHRSLD [YEL076C-A C-terminal 12 aa]”, the protein stability index turned out to be 0.6963 ± 0.0014 under setting [1] and 0.6572 ± 0.0041 (genetic background: wild type).

On to LKDLEKLGWKDE [YGR054W C-terminal 12 aa], for which the protein stability index by setting is: under setting [1], 0.695 ± 0.013; (genetic background: wild type) 0.666 ± 0.022.

For the sequence LKKQIFEKVQKE [MET4 C-terminal 12 aa], the protein stability index amounted to 0.701 ± 0.02 under setting [1] and 0.635 ± 0.022 (genetic background: wild type).

As for LKPWEGRIYISE [IMA1 C-terminal 12 aa], the protein stability index is 0.714 ± 0.016 under setting [1] and 0.6846 ± 0.0068 (genetic background: wild type).

In the case of LKSLSKYSVQNS [CTF3 C-terminal 12 aa], the protein stability index runs as follows: under setting [1], 0.686 ± 0.014; (genetic background: wild type) 0.678 ± 0.042.

LKTIAAVFSVRV [YJR114W C-terminal 12 aa]: the protein stability index was 0.612 ± 0.0077 under setting [1] and 0.629 ± 0.022 (genetic background: wild type).

LLERLSILDRLD [APS2 C-terminal 12 aa]: the protein stability index turned out to be 0.669 ± 0.019 under setting [1] and 0.69 ± 0.013 (genetic background: wild type).

As for LLIPRRILTLDL [PDL32 C-terminal 12 aa], the protein stability index is, setting by setting: under setting [1], 0.602 ± 0.001; (genetic background: wild type) 0.605 ± 0.036.

LLLLILNECYPA [BUD30 C-terminal 12 aa]: the protein stability index was found to be 0.518 ± 0.0085 under setting [1] and 0.539 ± 0.033 (genetic background: wild type).

Regarding “LLLSFYFDFYPF [YEL050W-A C-terminal 12 aa]”, the protein stability index was determined as 0.515 ± 0.009 under setting [1] and 0.6535 ± 0.0032 (genetic background: wild type).

Regarding LLPMAFGPSHLN [CDD1 C-terminal 12 aa], the protein stability index by setting is: under setting [1], 0.743 ± 0.032; (genetic background: wild type) 0.76 ± 0.045.

On to “LLSGEPLAKKKE [HMLALPHA2 C-terminal 12 aa]”, for which the protein stability index by setting is: under setting [1], 0.697 ± 0.0074; (genetic background: wild type) 0.744 ± 0.036.

For LLSVHMYSSSLL [YNL019C C-terminal 12 aa], the protein stability index is, setting by setting: under setting [1], 0.687 ± 0.011; (genetic background: wild type) 0.671 ± 0.018.

In the case of LMETSKDVDSHP [DMA2 C-terminal 12 aa], the protein stability index turned out to be 0.7 ± 0.01 under setting [1] and 0.729 ± 0.0096 (genetic background: wild type).

Regarding LPEAPSSQPLQA [TIM17 C-terminal 12 aa], the protein stability index amounted to 0.674 ± 0.013 under setting [1] and 0.696 ± 0.03 (genetic background: wild type).
